# Source: PMC4491177, “Co-translational capturing of nascent ribosomal proteins by their dedicated chaperones” (Nature Communications, 2015)
# T1: Rps3 (endogenous, nascent) (S. cerevisiae (endogenous in yeast cells)) (UniProt P05750)
# T1 sequence: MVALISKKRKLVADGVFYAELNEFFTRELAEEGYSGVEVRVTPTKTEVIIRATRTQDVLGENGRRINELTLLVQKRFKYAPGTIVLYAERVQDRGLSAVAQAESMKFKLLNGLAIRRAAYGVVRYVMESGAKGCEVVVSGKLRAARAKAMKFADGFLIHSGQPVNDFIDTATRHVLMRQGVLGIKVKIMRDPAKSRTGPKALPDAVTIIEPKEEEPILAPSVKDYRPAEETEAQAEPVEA
# T2: Rpl5 (endogenous, nascent) (S. cerevisiae (endogenous in yeast cells)) (UniProt P26321)
# T2 sequence: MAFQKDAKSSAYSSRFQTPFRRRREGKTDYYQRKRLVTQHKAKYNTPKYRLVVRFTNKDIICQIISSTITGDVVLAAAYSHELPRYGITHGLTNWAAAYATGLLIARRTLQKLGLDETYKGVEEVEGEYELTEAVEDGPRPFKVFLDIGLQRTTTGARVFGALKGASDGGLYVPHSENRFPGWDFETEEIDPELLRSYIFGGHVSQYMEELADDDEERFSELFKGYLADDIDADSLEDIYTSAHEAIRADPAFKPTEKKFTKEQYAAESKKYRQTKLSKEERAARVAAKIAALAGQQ
# B1: Rpl10-(His)6: C-terminally (His)6-tagged Rpl10 (protein)
# chain: MARRPARCYRYQKNKPYPKSRYNRAVPDSKIRIYDLGKKKATVDEFPLCVHLVSNELEQLSSEALEAARICANKYMTTVSGRDAFHLRVRVHPFHVLRINKMLSCAGADRLQQGMRGAWGKPHGLAARVDIGQIIFSVRTKDSNKDVVVEGLRRARYKFPGQQKIILSKKWGFTNLDRPEYLKKREAGEVKDDGAFVKFLSKKGSLENNIREFPEYFAAQA
# modifications: left off: (His)6, C-terminal, kept
# notes: C-terminally (His)6-tagged Rpl10
# B2: full-length Rpl10: full-length ribosomal protein Rpl10 (protein)
# chain: B1 chain
# modifications: left off: Gal4 DNA-binding domain or Gal4 activation domain (which of the two is not stated), end not stated, kept
# B3: Yar1-TAP (natural protein)
# chain: MGLHSEPLDQEDQDTIILDARAGDLDSLKDIFTTLVSPELLSTCKESESDSTALHMAAANGHIETVRYILETVSRANSAEDLKAFVNEVNKTGNTALHWASLNGKLDVVKLLCDEYEADPFIRNKFGHDAIFEAENSGKEEVETYFLKKYDVEPEDDEEDTQTEGKNSVQITKGTEIEQVTKEATEALREETEKLNINKD
# B4: Syo1-FTpA (natural protein)
# chain: MGRSKKRSRASSSRLNPLRKAGSNDNNKDTNVVNKKLQPLLQNLSSVVPNDRSIALSSISVLCEDAHMRQLLLKEKLVPIILNKLLNDSNSDIVVESFGLLRNLSLEEGYDVSIYLWRSDIWTSITSNFGRIVESLSALQAAEQQPQLKPAGKSKIESKRLLFDFADNLLSLVVALSNGSDDILNEILTESKINEIFQVISQLLKYGVEKLPINLFNTTLDLIYDLSSESFEFIDHVSNNELLSQFLNGLSPALHPQANELTKVLIEGIHCQFLDMKITYDQCNKMIHSVCHSINNIDPVQLVNDINNPVEIGPATSKDESSKVITKIKDYNAKRNESMIKLQSIEIAIDLITAIIEIVASKYESPESQEVAIPEELINTLTNFLPHVFMILKDTFTSRILIGWNNLIWLFVSLSLTELSGELLTTLWSYVTQLDSQDDLSIKIGRMGCIWALLKLIFPDGAFESENRALINVQMLNNSGFARGIIEEFQNNNDLELQQKCINVLSTYAMIQGQIDANKEIGQFFIQTLTQLNVRPEILIEMTNSLFQIYGDASYDYNEPIFVRGGFLSILKDQVVPNLRQQFKMVDKNKNPELKERCHDCFTTLDSFIHYKMNENSTNQ
# B5: Sqt1 Glu315 to lysine: Sqt1 variant, Glu315 mutated to lysine (protein, UniProt P35184 1-431, looked up, variant E315K)
# Ribosome assembly protein SQT1: MEPQEEFITTEEVEQEIVPTVEVEQDVPVDIEGENDDDDEMMNDDEEALEVDMSNNSLTYFDKHTDSVFAIGHHPNLPLVCTGGGDNLAHLWTSHSQPPKFAGTLTGYGESVISCSFTSEGGFLVTADMSGKVLVHMGQKGGAQWKLASQMQEVEEIVWLKTHPTIARTFAFGATDGSVWCYQINEQDGSLEQLMSGFVHQQDCSMGEFINTDKGENTLELVTCSLDSTIVAWNCFTGQQLFKITQAEIKGLEAPWISLSLAPETLTKGNSGVVACGSNNGLLAVINCNNGGAILHLSTVIELKPEQDELDASIKSISWSSKFSLMAIGLVCGEILLYDTSAWRVRHKFVLEDSVTKLMFDNDDLFASCINGKVYQFNARTGQEKFVCVGHNMGVLDFILLHPVANTGTEQKRKVITAGDEGVSLVFEVPN
# B6: Sqt1 (53C construct): WD-repeat β-propeller domain of Sqt1; deletion of amino acids 1–52 (protein)
# chain: MSNNSLTYFDKHTDSVFAIGHHPNLPLVCTGGGDNLAHLWTSHSQPPKFAGTLTGYGESVISCSFTSEGGFLVTADMSGKVLVHMGQKGGAQWKLASQMQEVEEIVWLKTHPTIARTFAFGATDGSVWCYQINEQDGSLEQLMSGFVHQQDCSMGEFINTDKGENTLELVTCSLDSTIVAWNCFTGQQLFKITQAEIKGLEAPWISLSLAPETLTKGNSGVVACGSNNGLLAVINCNNGGAILHLSTVIELKPEQDELDASIESISWSSKFSLMAIGLVCGEILLYDTSAWRVRHKFVLEDSVTKLMFDNDDLFASCINGKVYQFNARTGQEKFVCVGHNMGVLDFILLHPVANTGTEQKRKVITAGDEGVSLVFEVPN
# How the values were obtained:
# [1] = molecular target: CtSqt1.52C (WD-repeat β-propeller domain of ctSqt1); assay: isothermal titration calorimetry (ITC), C. thermophilum; type: binding, Chaetomium thermophilum
# Description: ITC experiments were performed on a MicroCal ITC 2000 instrument (GE Healthcare). The following peptides, corresponding to the N-terminal 19 (without N-terminal methionine) or 20 amino acids of S. cerevisiae and C. thermophilum Rpl10, were synthesized with a free acid group at the C terminus (peptides&elephants): Rpl10(1–20) NH2-[…]-COOH, Rpl10(2–20) NH2-[…]-COOH, ctRpl10(1–20) NH2-[…]-COOH and ctRpl10(2–20) NH2-[…]-COOH. Peptides (1 mg each) were dissolved in the appropriate volume of gel-filtration buffer (20 mM HEPES–NaOH (pH 7.5), 200 mM NaCl, 20 mM KCl and 20 mM MgCl2), which was used for the purification of ScSqt1.53C and ctSqt1.52C, to obtain 1 mM stock solutions. Concentrations of proteins were determined by measuring the A280 using a NanoDrop Lite spectrophotometer (Thermo Scientific). For determination of the C. thermophilum Sqt1/L10-N binding, 200 μl of ctSqt1.52C (10 μM) was added to the sample cell and 2 μl of 100 μM solutions of the peptides was titrated in at 25 °C. For determination of the S. cerevisiae Sqt1/L10-N binding, 200 μl of ScSqt1.53C (100 μM) was added to the sample cell and 2 μl of 1 mM solutions of the peptides were titrated in at 15 °C. ITC data were processed using the Origin ITC Software (OriginLab) and thermodynamic parameters were obtained by fitting the data to a One Set of Sites binding model.
# [2] = system: Sqt1-Flag; assay: in vitro binding assay, Ni-affinity co-purification of Sqt1-Flag; design: species or system S. cerevisiae; conditions: co-expression in E. coli, C-terminally (His)6-tagged Rpl10, Ni-affinity, SDS–PAGE and western blot
# Description: For in vitro binding assays between Rpl10-(His)6 and Sqt1-Flag or between ctRpl10-(His)6 and ctSqt1, proteins were co-expressed from pETDuet-1 (Novagen) in Rosetta(DE3) (Novagen) or BL21(DE3) (Novagen) E. coli cells, respectively. Cells were grown in 200 ml of lysogeny broth medium and protein expression was induced at an OD600 of ∼0.6–0.8 by the addition of isopropyl-β-D-thiogalactoside to a final concentration of 0.5 mM. After 5 h of growth at 30 °C, cells were harvested and stored at −80 °C. Cells were resuspended in 25 ml lysis buffer (50 mM Tris-HCl (pH 7.5), 200 mM NaCl, 1.5 mM MgCl2 and 5% glycerol) and lysed with a M-110L Microfluidizer (Microfluidics). The lysate (30 ml volume) was adjusted by the addition of 300 μl 10% NP-40 to 0.1% NP-40 (note that from here onwards all buffers contained 0.1% NP-40). An aliquot of 100 μl of total extract (sample T) was taken and mixed with 100 μl of 6 × loading buffer. The total extract was then centrifuged at 4 °C for 20 min at 14,000 r.p.m. The soluble extract was transferred to a 50-ml Falcon tube and, as above, an aliquot of 100 μl of soluble extract (sample S) was taken and mixed with 100 μl of 6 × loading buffer. The insoluble pellet fraction (sample P) was resuspended in 3 ml of lysis buffer, and 10 μl thereof were mixed with 90 μl of lysis buffer and 100 μl of 6 × loading buffer. […]
# [3] = soluble expression in E. coli; type: physicochemical; conditions: data not shown for Rpl10
# [4] = molecular target: T1, Rps3 (endogenous, nascent) (S. cerevisiae (endogenous in yeast cells))
# [5] = molecular target: T2, Rpl5 (endogenous, nascent) (S. cerevisiae (endogenous in yeast cells))
# [6] = system: Rpl10; assay: Y2H interaction with Rpl10; type: binding, S. cerevisiae; conditions: Sqt1 variants; PJ69-4A, HIS3 and ADE2 reporters, 3 days at 30 °C
# Description: For Y2H interaction assays, plasmids expressing bait proteins, fused to the Gal4 DNA-binding domain (G4BD), and prey proteins, fused to the Gal4 activation domain (G4AD), were co-transformed into reporter strain PJ69-4A. Y2H interactions were documented by spotting representative transformants in 10-fold serial dilution steps onto SC-Trp-Leu, SC-Trp-Leu-His (HIS3 reporter) and SC-Trp-Leu-Ade (ADE2 reporter) plates, which were incubated for 3 days at 30 °C. Growth on SC-Trp-Leu-His plates is indicative of a weak/moderate interaction, whereas only relatively strong interactions permit growth on SC-Trp-Leu-Ade plates.
molecule,measurement,setting,value
"H-MARRPARCYRYCKNKPYPKS-OH (cysteine pairing not given here) [CtL10-N(1-20), N-terminal 20 amino acids of C. thermophilum Rpl10]",Kd,"[1]; 10 μM ctSqt1.52C in cell, 2 μl of 100 μM peptide titrated, 25 °C, 20 mM HEPES–NaOH (pH 7.5), 200 mM NaCl, 20 mM KCl, 20 mM MgCl2, One Set of Sites, read-out: dissociation constant (Kd)",~442 nM
same,effect of Met1 on the interaction,[1]; ctSqt1,did not abolish the interaction completely
B1,co-purification with / interaction with Sqt1,[2],efficient co-purification of Sqt1-Flag
B2,soluble expression in E. coli,[3],expressed as an insoluble protein
B3,"enrichment of the RPS3 mRNA in the Yar1-TAP purification (IgG-sepharose pull-down from cycloheximide-treated cells, TEV eluate, real-time qRT–PCR)",[4],100 fold
B4,"enrichment of the RPL5 mRNA in the Syo1-FTpA purification (IgG-sepharose pull-down from cycloheximide-treated cells, TEV eluate, real-time qRT–PCR)",[5],100 fold
B5,Y2H interaction with Rpl10,[6],abolished the interaction between Sqt1 and Rpl10
B6,Y2H interaction with Rpl10,[6],sufficient to mediate the interaction both with full-length or the N-terminal residues
